The values below come from patent US20090192084A1.

The target of test [1] is Bromodomain and WD-repeat domain-containing protein 1. WDR9 (human) (UniProt Q9NSI6). Kind of test: Flag co-IP, MudPIT MS, DMSO.
For test [2], the target named is Bromodomain and WD-repeat domain-containing protein 2, WDR 1 I (human) (UniProt Q9BZH6). Kind of test: Flag co-IP, MudPIT MS, DMSO.
Test [3] concerns the target Bromodomain and WD-repeat domain-containing protein 3, BRWD3 (human) (UniProt Q6RI45). The test is described as follows: Flag co-IP, MudPIT MS, DMSO.
In a further test the target is Cullin 4A (human) (UniProt Q13619). Kind of test: Flag co-IP, MudPIT MS, DMSO.
A further test deals with Cullin 4B (human) (UniProt Q13620). Kind of test: Flag co-IP, MudPIT MS, DMSO.
A further test has as its target Elongin B (human) (UniProt Q15370). Kind of test: Flag co-IP, MudPIT MS, DMSO.
The target in test [4] is Kelch domain-containing protein 2, KLDC2 (human) (UniProt Q9Y2U9). The test is described as follows: Flag co-IP, MudPIT MS, DMSO.
A further test has as its target SKP1 (human) (UniProt P63208). Kind of test: Flag co-IP, MudPIT MS, DMSO.
Another test concerns the target endogenous NPL4 (human) (UniProt Q8TAT6). Kind of test: Flag co-IP, 293 cells, MudPIT MS.
Test [5] addresses BTB/POZ domain-containing protein 2. BTBD2 (human) (UniProt Q9BX70). Kind of test: Flag co-IP, MudPIT MS, DMSO.
Another test deals with Cullin 1 (human) (UniProt Q13616). The test is described as follows: Flag co-IP, MudPIT MS, DMSO.
Test [6] deals with Kelch repeat and BTB domain-containing protein 7, KBTB7 (human) (UniProt Q8WVZ9). The test is described as follows: Flag co-IP, MudPIT MS, DMSO.
The target in test [7] is RING finger protein 12. RLIM (human) (UniProt Q9NVW2). The test is described as follows: Flag co-IP, MudPIT MS, DMSO.
Test [8] concerns the target Ubiquitin conjugation factor E4 B, UBE4B (Ufd2ortholog) (human) (UniProt O95155). The test is described as follows: Flag co-IP, MudPIT MS, DMSO.
For the next test, the target named is T1, VCIP135 (human) (UniProt Q96JH7).
T1 sequence (looked up): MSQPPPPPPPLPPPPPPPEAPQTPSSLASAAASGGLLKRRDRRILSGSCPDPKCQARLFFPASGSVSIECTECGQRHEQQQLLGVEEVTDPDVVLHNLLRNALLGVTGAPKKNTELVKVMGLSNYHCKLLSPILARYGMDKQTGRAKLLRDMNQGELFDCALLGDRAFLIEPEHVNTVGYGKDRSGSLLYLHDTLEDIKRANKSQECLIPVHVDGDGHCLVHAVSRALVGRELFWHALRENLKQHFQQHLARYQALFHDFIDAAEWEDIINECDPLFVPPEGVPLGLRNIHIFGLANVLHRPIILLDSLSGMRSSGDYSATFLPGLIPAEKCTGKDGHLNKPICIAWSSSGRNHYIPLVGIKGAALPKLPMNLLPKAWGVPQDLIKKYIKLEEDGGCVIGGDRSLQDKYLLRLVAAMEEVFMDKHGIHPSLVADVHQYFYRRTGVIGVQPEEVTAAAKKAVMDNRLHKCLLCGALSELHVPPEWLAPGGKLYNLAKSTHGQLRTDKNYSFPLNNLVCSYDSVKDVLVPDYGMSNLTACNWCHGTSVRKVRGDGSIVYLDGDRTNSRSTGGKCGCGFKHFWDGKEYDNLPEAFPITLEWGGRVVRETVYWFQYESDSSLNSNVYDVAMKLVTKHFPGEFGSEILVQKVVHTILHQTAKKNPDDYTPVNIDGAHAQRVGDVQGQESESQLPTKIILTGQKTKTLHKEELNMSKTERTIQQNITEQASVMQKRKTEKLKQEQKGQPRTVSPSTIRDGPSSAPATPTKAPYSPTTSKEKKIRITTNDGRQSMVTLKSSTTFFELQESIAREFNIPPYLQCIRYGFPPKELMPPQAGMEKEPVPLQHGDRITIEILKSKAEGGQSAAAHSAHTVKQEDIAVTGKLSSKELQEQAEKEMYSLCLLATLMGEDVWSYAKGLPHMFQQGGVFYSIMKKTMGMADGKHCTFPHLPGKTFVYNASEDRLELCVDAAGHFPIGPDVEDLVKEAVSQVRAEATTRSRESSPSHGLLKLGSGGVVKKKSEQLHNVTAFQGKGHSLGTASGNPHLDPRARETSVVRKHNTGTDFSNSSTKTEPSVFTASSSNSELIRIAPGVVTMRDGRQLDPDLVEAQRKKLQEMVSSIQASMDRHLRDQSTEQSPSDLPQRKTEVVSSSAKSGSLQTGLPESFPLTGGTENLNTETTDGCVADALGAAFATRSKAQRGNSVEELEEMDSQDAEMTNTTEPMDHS
Kind of test: Flag co-IP, 293 cells, MudPIT MS.

The target in another test is Elongin C (human) (UniProt Q15369). Kind of test: Flag co-IP, MudPIT MS, DMSO.
Test [9] deals with Galectin-3 binding protein. LG3BP (human) (UniProt Q08380). Kind of test: Flag co-IP, MudPIT MS, DMSO.
Test [10] concerns the target WD repeat protein Anti homolog. WDR68 (human) (UniProt P61962). Kind of test: Flag co-IP, MudPIT MS, DMSO.

Chain of endogenous NPL4 (human) (Q8TAT6 other isoform, or with tags, fused parts or gaps limits assumed): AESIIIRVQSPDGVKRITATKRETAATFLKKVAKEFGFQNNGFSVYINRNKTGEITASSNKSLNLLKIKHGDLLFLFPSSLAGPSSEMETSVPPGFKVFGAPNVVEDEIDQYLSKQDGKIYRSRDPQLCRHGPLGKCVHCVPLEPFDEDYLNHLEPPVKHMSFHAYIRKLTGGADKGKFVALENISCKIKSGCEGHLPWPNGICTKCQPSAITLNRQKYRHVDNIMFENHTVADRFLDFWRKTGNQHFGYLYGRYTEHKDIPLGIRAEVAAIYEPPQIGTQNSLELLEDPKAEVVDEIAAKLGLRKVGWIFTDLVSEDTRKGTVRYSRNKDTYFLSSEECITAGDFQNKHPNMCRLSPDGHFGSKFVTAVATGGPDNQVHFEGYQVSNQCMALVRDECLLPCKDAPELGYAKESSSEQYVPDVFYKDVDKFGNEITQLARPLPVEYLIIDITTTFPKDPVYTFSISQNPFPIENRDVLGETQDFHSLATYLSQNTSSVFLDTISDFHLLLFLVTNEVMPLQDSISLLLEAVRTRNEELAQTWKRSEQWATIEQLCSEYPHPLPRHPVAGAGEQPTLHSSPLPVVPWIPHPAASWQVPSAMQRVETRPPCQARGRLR
Chain of WD repeat protein Anti homolog. WDR68 (human) (P61962 whole entry): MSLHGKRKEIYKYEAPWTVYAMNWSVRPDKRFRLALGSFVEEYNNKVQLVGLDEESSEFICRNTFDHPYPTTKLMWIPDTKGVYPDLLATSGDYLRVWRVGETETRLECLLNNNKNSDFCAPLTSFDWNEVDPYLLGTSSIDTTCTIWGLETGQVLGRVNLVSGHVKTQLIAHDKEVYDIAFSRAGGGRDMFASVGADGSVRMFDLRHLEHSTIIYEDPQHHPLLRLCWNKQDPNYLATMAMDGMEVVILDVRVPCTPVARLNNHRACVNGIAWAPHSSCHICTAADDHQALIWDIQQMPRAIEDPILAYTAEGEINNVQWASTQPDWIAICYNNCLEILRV
Chain of SKP1 (human) (P63208 2-163 limits assumed): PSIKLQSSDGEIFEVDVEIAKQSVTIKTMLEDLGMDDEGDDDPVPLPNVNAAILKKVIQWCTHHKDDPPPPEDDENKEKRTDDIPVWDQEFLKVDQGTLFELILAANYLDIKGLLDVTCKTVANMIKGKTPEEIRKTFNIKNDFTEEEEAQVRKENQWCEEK
Chain of Cullin 4A (human) (Q13619 whole entry): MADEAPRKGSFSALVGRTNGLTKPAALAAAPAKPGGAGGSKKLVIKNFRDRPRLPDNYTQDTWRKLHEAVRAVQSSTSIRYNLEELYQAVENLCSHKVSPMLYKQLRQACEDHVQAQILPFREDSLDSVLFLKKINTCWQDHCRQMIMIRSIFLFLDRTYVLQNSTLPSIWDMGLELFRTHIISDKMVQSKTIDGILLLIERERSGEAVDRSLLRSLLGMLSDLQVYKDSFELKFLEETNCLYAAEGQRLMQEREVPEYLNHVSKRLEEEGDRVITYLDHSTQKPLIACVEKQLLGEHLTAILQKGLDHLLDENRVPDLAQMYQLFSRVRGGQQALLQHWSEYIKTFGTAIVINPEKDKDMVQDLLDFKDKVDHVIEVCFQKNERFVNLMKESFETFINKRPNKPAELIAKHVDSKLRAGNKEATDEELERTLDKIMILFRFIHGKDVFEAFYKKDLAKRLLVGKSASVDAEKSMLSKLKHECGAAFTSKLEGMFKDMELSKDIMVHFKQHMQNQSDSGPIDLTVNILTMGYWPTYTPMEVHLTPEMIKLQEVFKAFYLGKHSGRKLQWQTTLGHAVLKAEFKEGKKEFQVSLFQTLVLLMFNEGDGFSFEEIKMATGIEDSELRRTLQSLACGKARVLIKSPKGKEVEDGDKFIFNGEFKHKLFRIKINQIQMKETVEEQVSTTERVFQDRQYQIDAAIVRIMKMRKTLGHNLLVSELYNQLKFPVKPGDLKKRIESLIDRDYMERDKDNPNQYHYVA
Chain of Kelch domain-containing protein 2, KLDC2 (human) (Q9Y2U9 whole entry, the tested form may be a part): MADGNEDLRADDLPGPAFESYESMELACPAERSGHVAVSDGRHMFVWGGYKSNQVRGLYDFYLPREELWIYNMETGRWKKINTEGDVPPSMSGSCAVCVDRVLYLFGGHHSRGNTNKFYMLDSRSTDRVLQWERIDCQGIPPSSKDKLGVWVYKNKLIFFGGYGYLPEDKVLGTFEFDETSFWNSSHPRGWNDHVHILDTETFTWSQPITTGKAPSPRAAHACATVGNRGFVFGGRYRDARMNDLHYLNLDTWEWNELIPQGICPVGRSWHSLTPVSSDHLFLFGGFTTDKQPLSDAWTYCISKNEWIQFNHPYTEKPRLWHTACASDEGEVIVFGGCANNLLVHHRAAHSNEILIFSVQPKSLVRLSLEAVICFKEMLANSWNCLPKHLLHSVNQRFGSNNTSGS
Chain of Kelch repeat and BTB domain-containing protein 7, KBTB7 (human) (Q8WVZ9 whole entry, the tested form may be a part): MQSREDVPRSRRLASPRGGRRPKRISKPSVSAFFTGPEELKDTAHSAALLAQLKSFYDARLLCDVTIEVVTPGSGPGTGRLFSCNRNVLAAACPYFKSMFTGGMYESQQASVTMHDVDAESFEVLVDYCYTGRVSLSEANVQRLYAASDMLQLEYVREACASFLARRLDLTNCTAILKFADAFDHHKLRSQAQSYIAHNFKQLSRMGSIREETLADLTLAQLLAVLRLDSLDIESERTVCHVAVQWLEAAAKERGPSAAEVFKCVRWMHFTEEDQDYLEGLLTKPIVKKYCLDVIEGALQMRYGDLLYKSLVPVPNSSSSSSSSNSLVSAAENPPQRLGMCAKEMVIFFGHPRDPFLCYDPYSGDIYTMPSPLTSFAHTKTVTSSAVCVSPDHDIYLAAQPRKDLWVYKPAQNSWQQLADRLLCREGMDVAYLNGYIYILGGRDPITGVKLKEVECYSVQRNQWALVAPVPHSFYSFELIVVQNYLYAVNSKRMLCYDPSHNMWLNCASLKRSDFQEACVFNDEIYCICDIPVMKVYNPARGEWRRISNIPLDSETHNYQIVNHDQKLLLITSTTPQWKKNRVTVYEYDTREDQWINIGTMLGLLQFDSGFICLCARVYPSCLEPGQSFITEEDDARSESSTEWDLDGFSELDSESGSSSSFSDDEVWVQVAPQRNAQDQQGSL
Chain of Elongin C (human) (Q15369 whole entry): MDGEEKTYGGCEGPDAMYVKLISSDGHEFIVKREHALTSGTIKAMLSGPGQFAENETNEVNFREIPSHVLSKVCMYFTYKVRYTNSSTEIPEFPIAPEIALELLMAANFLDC
Chain of Cullin 1 (human) (Q13616 whole entry, the tested form may be a part): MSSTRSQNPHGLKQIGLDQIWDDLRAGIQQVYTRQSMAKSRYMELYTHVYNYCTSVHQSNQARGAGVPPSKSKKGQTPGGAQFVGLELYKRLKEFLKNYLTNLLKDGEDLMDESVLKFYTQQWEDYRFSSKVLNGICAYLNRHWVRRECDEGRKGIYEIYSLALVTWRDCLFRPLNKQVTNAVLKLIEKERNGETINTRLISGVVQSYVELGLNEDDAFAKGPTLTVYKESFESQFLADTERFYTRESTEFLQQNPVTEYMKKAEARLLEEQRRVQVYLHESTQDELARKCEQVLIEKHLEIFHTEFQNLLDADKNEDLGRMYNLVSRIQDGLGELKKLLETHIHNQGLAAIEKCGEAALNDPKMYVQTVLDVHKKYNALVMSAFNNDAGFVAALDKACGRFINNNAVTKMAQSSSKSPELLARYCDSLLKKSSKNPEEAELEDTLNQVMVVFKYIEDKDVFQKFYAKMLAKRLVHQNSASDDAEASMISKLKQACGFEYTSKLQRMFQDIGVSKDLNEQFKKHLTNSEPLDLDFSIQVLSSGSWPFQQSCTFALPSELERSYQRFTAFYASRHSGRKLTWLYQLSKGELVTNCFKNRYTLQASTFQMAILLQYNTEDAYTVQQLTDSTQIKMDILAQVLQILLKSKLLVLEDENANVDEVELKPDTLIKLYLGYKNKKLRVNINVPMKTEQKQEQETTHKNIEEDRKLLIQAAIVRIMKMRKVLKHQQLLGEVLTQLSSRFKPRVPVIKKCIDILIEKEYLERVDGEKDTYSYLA
Chain of Elongin B (human) (Q15370 other isoform, or with tags, fused parts or gaps limits assumed): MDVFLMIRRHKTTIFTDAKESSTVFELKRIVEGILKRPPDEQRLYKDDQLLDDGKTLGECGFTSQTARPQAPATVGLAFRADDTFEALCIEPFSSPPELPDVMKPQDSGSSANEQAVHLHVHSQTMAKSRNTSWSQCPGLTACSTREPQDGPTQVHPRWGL
Chain of RING finger protein 12. RLIM (human) (Q9NVW2 whole entry): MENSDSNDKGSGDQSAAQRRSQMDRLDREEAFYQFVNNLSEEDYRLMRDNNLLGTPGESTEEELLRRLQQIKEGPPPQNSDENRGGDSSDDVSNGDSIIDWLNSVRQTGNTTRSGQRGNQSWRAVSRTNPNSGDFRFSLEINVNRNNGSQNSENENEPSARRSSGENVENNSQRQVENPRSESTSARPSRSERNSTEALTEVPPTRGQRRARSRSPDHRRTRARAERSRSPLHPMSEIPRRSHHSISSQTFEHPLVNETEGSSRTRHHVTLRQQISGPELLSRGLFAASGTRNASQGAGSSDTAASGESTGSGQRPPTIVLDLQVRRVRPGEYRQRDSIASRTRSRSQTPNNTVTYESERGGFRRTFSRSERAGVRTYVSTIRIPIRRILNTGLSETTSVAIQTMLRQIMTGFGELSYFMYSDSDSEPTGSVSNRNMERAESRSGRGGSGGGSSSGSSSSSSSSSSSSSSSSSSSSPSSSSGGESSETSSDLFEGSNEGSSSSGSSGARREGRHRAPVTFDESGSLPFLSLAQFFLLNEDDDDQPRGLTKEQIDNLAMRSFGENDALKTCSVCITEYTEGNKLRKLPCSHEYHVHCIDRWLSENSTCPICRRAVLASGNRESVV

As to Flag-UBXD7 (from UniProt O94888 1-489), the abundance factor (AF) in [1] worked out at 2.2; in [2] it was 2.1; in test [3], 1.4; in the test with Cullin 4A (human), 9.8; with Elongin B (human), 16; in [4], 9.3. Besides, the abundance factor (AF) with SKP1 (human) turned out to be 30.7. The sequence count in [1] was found to be 3; in [2], 2; in test [3] it was 2; with Cullin 4A (human) it was 5; in the test with Cullin 4B (human) it was 7; with Elongin B (human) it was 2. Besides, the sequence count in test [4] worked out at 2; with SKP1 (human), 3; with endogenous NPL4 (human), 14. For the same substance, the spectrum count worked out at 4 in [1]; 2 in [2]; 2 in test [3]; 6 with Cullin 4A (human); 9 in the test with Cullin 4B (human); 2 with Elongin B (human). The spectrum count came out at 3 in test [4], 4 in the test with SKP1 (human) and 33 with endogenous NPL4 (human). This substance also showed a sequence coverage with endogenous NPL4 (human) of 24.5%.

Consider Flag-SAKS1 (from UniProt Q04323 1-297), for which the abundance factor (AF) came out at 2.9 in test [5]; 6.5 in the test with Cullin 1 (human); 2.1 in [6]; 3.5 in test [7]; 1.1 in test [8]. Also, the sequence count in test [5] stood at 2; in the test with Cullin 1 (human) it was 5; in test [6], 2; in [7], 2; in [8], 2; with VCIP135 (human) it was 2. The spectrum count in [5] amounted to 2; with Cullin 1 (human), 7; in test [6], 2; in test [7] it was 3; in [8], 2; with VCIP135 (human), 2. In addition, the sequence coverage with VCIP135 (human) came out at 2.9%.

Consider Flag-UBXD8 (from UniProt Q96CS3 1-445), for which the abundance factor (AF) worked out at 7 in the test with Elongin C (human), 0.8 in test [9] and 0.9 in test [10]. Moreover, the sequence count is 2 with Elongin C (human), 2 in test [10], 11 with VCIP135 (human) and 11 with endogenous NPL4 (human). Further, the spectrum count came out at 5 in the test with Elongin C (human); 3 in test [9]; 2 in test [10]; 12 with VCIP135 (human); 209 with endogenous NPL4 (human). In addition, the sequence coverage is 14.1% with VCIP135 (human) and 20.6% with endogenous NPL4 (human).
